Measurements taken from paper doi:10.1101/2024.02.14.580290 (bioRxiv, 2024).

Target: rat Gβ1 with Hexa-His-tag (in purified Gαsβ1γ2) (rat, UniProt P54311 2-340)
Test: cross-linking

binding result: binds
B1: bovine Gαs short subunit (in purified Gαsβ1γ2) (natural protein)
chain: MGCLGNSKTEDQRNEEKAQREANKKIEKQLQKDKQVYRATHRLLLLGAGESGKSTIVKQMRILHVNGFNGDGEKATKVQDIKNNLKEAIETIVAAMSNLVPPVELANPENQFRVDYILSVMNVPDFDFPPEFYEHAKALWEDEGVRACYERSNEYQLIDCAQYFLDKIDVIKQDDYVPSDQDLLRCRVLTSGIFETKFQVDKVNFHMFDVGGQRDERRKWIQCFNDVTAIIFVVASSSYNMVIREDNQTNRLQEALNLFKSIWNNRWLRTISVILFLNKQDLLAEKVLAGKSKIEDYFPEFARYTTPEDATPEPGEDPRVTRAKYFIRDEFLRISTASGDGRHYCYPHFTCAVDTENIRRVFNDCRDIIQRMHLRQYELL
